{"source": "patent US20140289906A1", "about": "“Compositions Having Dicamba Decarboxylase Activity and Methods of Use” (priority 2013, published 2014)", "molecules": {"B1": {"name": "76 (protein, listed as Polymorphum gilvum)", "chain": "MAKKIDIFNHIWPEPFFKALIAHIGEMTDITMRSGAVPMMTNLDRRFEVMDMFGPDYMQVLSLASPPLEKLADPAKALELSRIGSDSLAELCQRYPERFPAFIGTAPLSNPAAVVGECRRAIEDLGAAGMQIFTNVAGKPLDLAEFEPFFEYMASAGKPVWLHPARGEAFADYQTEKRSEYEIWWTFGWPYETSAAMARLVFSRMFDKYPGLKVITHHAGGMVPFFEGRVGPGWDQMGARTTDRDLAAVRKALKRPHLDYFKEFYADTASFGSRKAIEHAIEFFGEDRVLFASDAPFDPEGGPMYIRETMRCIDSLDLTDAQRRKIYHGNATALLGLSL"}, "B2": {"name": "78 (protein, listed as Marinobacter adhaerens)", "chain": "MALIDLHAHAPHPDYYDQHPHWGPAFELQSDGDIKLRVGHWVLSLGAPERKQALREAHARGETLDVQEYMAKWRDPEHRLASMDAAGQNAQVLSVPSHCYMYWAEPEFGVPFAKKVNDSLAEYCSAAPDRLMFWAHAPLNVPKEAAKEIRRACTELGAKGLVAGGSNFGGLEFDSPEMDPVWEALCDLDLPMFVHGYNQSVTWGEEANTDRYETTAIVGMNYDESKCFWYMINGGVFDRFPNLKVYITHGGGFVPYQLGRMAQTNPNLDTYHNKKPFLEYLKNFYFDVELHEVPMRQAMVEVIGADRVLYGSNFGGSDAVRHDLTDDLKLSQEDLDKIRWKNACDLLHLDPNKLGKVRG"}, "B3": {"name": "69 (protein, listed as Microbacterium testaceum)", "chain": "MATSTEGQDVTDVHAHLLMPGLHAEVERRVPDEVQAAADLELRRNGLASLQASGRMIGERFPRLTDVRARLAAMDEQGVDRQWVSPSPNHFYPWANEGLATWASGEANRLIAEHVALAPDRLVGLGVVPLQHPHLVVDALDDAVLGRGLAGVEISSFAGDVELSDERLESFWARAAELRAVVFLHPFGCSLDERLDRFYLSNTVGQPTENAVALSHLIFSGVLDRHPGLRLIAAHGGGYLPTAIGRSDRAWRVRPEARGCAHAPSTYLSKLWFDTVVHDERALRWLVEAAGADRVLLGSDFPFDMGLDDPVAFVRGAGLQDAEVSGILGGNAAELLRTRVHA"}, "B4": {"name": "72 (protein)", "chain": "MADCPCCVSPKRRRLLGSVSAIAAGMMAGLPALAAQPSTAAAGTGKPLSIDIHAHYYSESFLGLLGGEGKQFGGHFFRNDDSFTFQTPAGGLGPLPMKFIDVEQRVRDMDNSGVDVQAISLSVPMVYWADRTLNAKLARAWNTAASDVHRKHPTRFVVLATLPMLNANDAIDELEFAAGLPGVRGIYMGTNINNRDLDDPLFSPIFKRIEQLNLPIFLHPQQTVGGARLADFYLSNLLGNPFDTAIAASHLILGGVLDKYPALHFSLPHAGGALPILVGRIDAGWSMRSETKRVAQKPSSYLRRFSYDTISHSGPTLDFLIRNIGADRLVLGSDYCFDMGYEQPVRFLDRLALPDDQKRMVVGGNAARLLNL", "modifications": "Cupriavidus necator"}, "B5": {"name": "68 (protein, listed as Hoeflea phototrophica)", "chain": "MAIIDAHTHTLCPAVNEKVAGTIKPDSVPYQRDMSPESKEQDHTQFPELKIMFNQVERRLADMARMGIDRQVIAPAPGQQHYWAEPKLLAEISALQNDHVAELVARAPDRFAGIGTLPMTDPDAAVAEITRATRELGLRVFQIDSRVMERELSDASLDPIYAALEAAGAGLMIHPLGFSNGERLTPFFMVNSVAQPLEELLAFNHLVFGGVLDRFPKLKVYIAHGGGFAPFYIGRFDHAWKVRPEVNRLTPSAPSTYLRRIYFDTCVYRTDHIETLVRTVGADRVMLGSDYPFDMGDTDPLGLLNACQGLSDDEKATISSKVAIDFFGLET"}, "B6": {"name": "74 (protein, listed as Ramlibacter tataouinensis)", "chain": "MATVIDVHTHMFTTKWLELLKKEGGQYNIQTRPDGQQEIFRGNTPVVIPQKGHFDWKLRIQHMDQAGIDVSVVSLTCPNVYWGGEDVSVRAAREANDNVAQAQTAYPDRIRWFASLPWEYMATVIDVHTHMFTTKWLELLKKEGGQYNIQTRPDGQQEIFRGNTPVVIPQKGHFDWKLRIQHMDQAGIDVSVVSLTCPNVYWGGEDVSVRAAREANDNVAQAQTAYPDRIRWFASLPWEYPQRAVEELERSCAQGAAGVMVLANVAGRSLTDPLFAPVWAEIDRRALPVLVHPTDPPGVDLMDMTKFDLSWSVGFMFDTTLAITRMIFEGFFDRYPNLRIIASHGGGTLPYLVGRFEKGDEVELASRRQMKRKPTDYLRHIHYDCITYNLGALQYLISVVGAGQVMFGTDWPHWVHDTRGAFANTAQLPQEQTRAVRGANAQRLFKL"}, "B7": {"name": "75 (protein, listed as Ectocarpus siliculosus)", "chain": "MAKIDSYTHFACPAFMDHLEAESGHPMVFRGLFSSIPELSDIDLRIRYMDEHGIDVHCLVPLPWLECEPGLHADEGKALEACRIANDEMARVVARFPDRLIGVALIPTTTEQAMIQETTRAVKELGMAGVALFVGPTAKPPDMACFEGLYRTCEELGAVVWMHPCRPQSYADYDSYKGEGSKHQIWNTFGWIYDTSVAMVHIALAGVFRRYPGLKVVTHHHGAMVPFFTARFDTQRRNFQEVEGDDLLEDLRLFYCDTATFGESAANIQQAIDFFGKSQVLFGTDTPMDMGTRGMFTRTTIASVEALGAAPEDKESFYAGNVLDMLGERFAGISGARGAVAARPKGDSTRIAASL"}, "B8": {"name": "62 (protein)", "chain": "MAVGGKNFRDVTDQVWCPKKRIEDMDREGVDIQVLSPIPVTFSYWAKPEEAESMARIQNDFIAETVLAYPDRFVGLGTVPMQDGETAIREMERCITELNLHGIEIGTNVNGKNLDDPSFIEFFRMAEKWQVPIFIHPWETLGRDRMPHHNFMYTVGMPSETALAAATLIWSGIMEKFPRLKVCFAHGGGSFPYILPRLDQGWKVWPHLRLTTHPPSYYAKKFYFDSLNYDPINLKYMIERFGHEKIFMGSDYPFLLREVDPGKVIDETASLSEEQKAAMLGGNAAEFLNIDIKKRGVAYAESTNT", "modifications": "Bacillus thuringiensis serovar pulsiensis"}, "B9": {"name": "64 (protein, listed as Achromobacter piechaudii)", "chain": "MAIQKIDMHAHFFPPITRQEAAALDPVNAPWLRPDADGATGQIMAGEREFRPVDATLWDPALRIEQMDRHGVDVQILCATPIMFGYTYPARPAADWAARMNDLALEHCAYAPSRLKALAQVPLQDLELACQEASRARAAGHLGVQIGNHVGPRDLDDETLVQFLIHCANNDIPVLVHPWDMMTDGRMKKWMLPWLVSMPAETQLGILSLILSGAFERIPRSLKLCFAHGGGSFAYLLGRVDNAWRHRDIIRQDCPQLPSSYTDRFYTDSAVFDPRSLRLLIDVMGEDRVLLGSDYPYPLGEQEVGRLVAHAELVPEVQQKILFRNTMTFFGLQPGLQPGLQS"}, "B10": {"name": "73 (protein, listed as Sphaerobacter thermophilus)", "chain": "MARIDAHAHAQPPEYLDALLASGRYESVRDAEGRIVVRERGSRFLTITPQMHHPEQRVAEMDEAGIDMQILSVTTPQVYFLQGQAAVDLARRCNDYLADIVRSYPTRFRALASVPLTADPDAAVREFVRCLDDLGMVGAIIGSNIDGRPIDDPAFDAFYAEADRRATTLFIHPMVPAGIEVMNPYALAPLVGFMFDTTLAVSRLIFSGFFERYPRVKVLVGHLGAAVPYLAGRLDIGWRSYSDCQGIPHPPTEYIRRLYLDTVSFHAPALRCALETVGPDRIVFGSDYPHVIGDVGGAIASIQQALPATTHDGVLGHTAAELFGVSA"}, "B11": {"name": "77 (protein)", "chain": "MALIDLHAHAPHPGYYNQHPHWGPFFERHEDGDVKLRVGDWILTLGSPERKALVRAGKGPTVEEYQARWADPKVRLAGMDAAGQNAQVVSVPSHCYMYWAEKEFSVPFATKVNDTFAEYCSAAPDRLMFWAHAALNAPEQAALELRRACTELGAKGLVAGGANFGGLEFDSPELDPVWKVLCDLDLPMFIHGYNQSVTWGKKANDDRYETTAIVGMQYDETRCFWNLVCGGVLDRFPGLKVYITHGGGYVPYQLGRLAQCNGNLDVAHNKKPVLEYLKNNFYFDVELHEVPMRQALIDIIGADRVLYGSNFGGSDAVRHDLTEGLRLSDDDLQKIRWKNACKLLHLDPAKIGEPAKKQAVSA", "modifications": "Burkholderia xenovorans"}, "B12": {"name": "70 (protein, listed as Alicyclobacillus acidocaldarius)", "chain": "MAIEPNRAADVHTHFLPTEVLEFLKREPRIQVDLERRAPDKEPFLTVEGRWSFELKRMFVDFEAFASAYRQAGIGLALVSPLPQLFVYHLPAEMGAQVAEVYNDALRDVLAPHRERFRPLATLPLADPTAAARELERRMDEGFVGAIVGPGVGEALIGDEAFWPLWEVADARRAVLFLHPLLHADPRAARLMLPNLVGVPWETTLAAAHLVLSGLLDRYPGARVLLAHGGGFLPYQIGRIEQGYDVWPQVRGRLQDRPTAYLRRMFYDNVLWSDAALRCLIDVVGADRVLAGSDFPFDLSAWPPRPGADVSVLAGGSGREGRLS"}, "B13": {"name": "71 (protein, listed as Burkholderia dolosa)", "chain": "MARAGHRAARTRQSRPGDRTMTCSCCMSAGRRRVLGAFAALAGAPKGPRAASAAQPAAASKPTRGDATARNRHSRALLPGKASASWSATKASGSGGAFAWDDTTFTFRTPAGGLGPLPMKFIDVDARLRDMDASGVDVQALSLSVPMAYWGDRPFNAKLARAWNTAASRVHVRAPDRFVVLATLPMLDATDAIDELERASELPGVRGVYMGTNIDNRDLDDPRFAPVFARIEQLGLPVFLHPQQTVGGARLGDFYLSNLLGNPFDTAIAASHLILGGVLDRHPALHFTLPHAGGALPILVGRLDAGWTVRAETRRLAHQPSGYLRRFSYDTVSHSGPVLNFLIENVGIDRLVLGSDYCFDMGYEQPVRFLDRLDLTPDERAMVIGGNAGRLLRI"}, "B14": {"name": "61 (protein, listed as Gordonia amarae)", "chain": "MATGAGSGVPSPADRVIVRSPGVIDVHAHAVLPMSLGCAGAAGPEIGYREDGSPFFRVGEYVLNGVRYEGSAFMDPEVRVAAMDAAGIGLQMISPNPITYFTRLDARSATDYARAHNDAIAEAAGRHPGRLVGAAQLPMQDVPAAIAELERSVRELGLVAAYIDTDIGDRTLDAPELDDFYSAAVELDVPVFIHPSPVGQEGPPDDTRLRRFDLDLLLGFSYDETLAVAALVFGGVLERHPALDVCLSHGGGTLAFVAGRFARAVAKPRAWVPEFLVENGIESYLRRLWLDTHVHSAGSLRLLIDTVGTDRLVFGTNFAGWDADGATEVDALGDLRETTTANAAHLLRLGRA"}}, "experiment": "14C assay: 14CO2 capture from [14C]-carboxyl-labeled dicamba with IPTG-induced recombinant E. coli cells", "conditions": "for Dicamba Decarboxylase Activity: IPTG-induced recombinant E. coli cells, 14CO2 from [14C]-carboxyl-labeled dicamba; for Enzymatic Detection level: dicamba decarboxylation activity"}
{"molecule": "B1", "values": [{"measurement": "Dicamba Decarboxylase Activity", "value": "No"}, {"measurement": "Enzymatic Detection level", "value": "No"}]}
{"molecule": "B2", "values": [{"measurement": "Dicamba Decarboxylase Activity", "value": "Low"}, {"measurement": "Enzymatic Detection level", "value": "Low"}]}
{"molecule": "B3", "values": [{"measurement": "Dicamba Decarboxylase Activity", "value": "No"}, {"measurement": "Enzymatic Detection level", "value": "No"}]}
{"molecule": "B4", "values": [{"measurement": "Dicamba Decarboxylase Activity", "value": "Low"}, {"measurement": "Enzymatic Detection level", "value": "Low"}]}
{"molecule": "B5", "values": [{"measurement": "Dicamba Decarboxylase Activity", "value": "No"}, {"measurement": "Enzymatic Detection level", "value": "No"}]}
{"molecule": "B6", "values": [{"measurement": "Dicamba Decarboxylase Activity", "value": "Low"}, {"measurement": "Enzymatic Detection level", "value": "Low"}]}
{"molecule": "B7", "values": [{"measurement": "Dicamba Decarboxylase Activity", "value": "Low"}, {"measurement": "Enzymatic Detection level", "value": "Low"}]}
{"molecule": "B8", "values": [{"measurement": "Dicamba Decarboxylase Activity", "value": "No"}, {"measurement": "Enzymatic Detection level", "value": "No"}]}
{"molecule": "B9", "values": [{"measurement": "Dicamba Decarboxylase Activity", "value": "Low"}, {"measurement": "Enzymatic Detection level", "value": "Low"}]}
{"molecule": "B10", "values": [{"measurement": "Dicamba Decarboxylase Activity", "value": "Low"}, {"measurement": "Enzymatic Detection level", "value": "Low"}]}
{"molecule": "B11", "values": [{"measurement": "Dicamba Decarboxylase Activity", "value": "No"}, {"measurement": "Enzymatic Detection level", "value": "No"}]}
{"molecule": "B12", "values": [{"measurement": "Dicamba Decarboxylase Activity", "value": "Low"}, {"measurement": "Enzymatic Detection level", "value": "Low"}]}
{"molecule": "B13", "values": [{"measurement": "Dicamba Decarboxylase Activity", "value": "Low"}, {"measurement": "Enzymatic Detection level", "value": "Low"}]}
{"molecule": "B14", "values": [{"measurement": "Dicamba Decarboxylase Activity", "value": "No"}, {"measurement": "Enzymatic Detection level", "value": "No"}]}
